Results on 1 protein are retold here after publication PMC7484307 (Archives of biochemistry and biophysics, 2020).

This data set deals with the molecule itself. Description: AUC.

B1: His-tagged ALDH9A1 (aldehyde dehydrogenase 9A1) (enzyme, human, UniProt P49189 1-494, looked up)
chain: MSTGTFVVSQPLNYRGGARVEPADASGTEKAFEPATGRVIATFTCSGEKEVNLAVQNAKAAFKIWSQKSGMERCRILLEAARIIREREDEIATMECINNGKSIFEARLDIDISWQCLEYYAGLAASMAGEHIQLPGGSFGYTRREPLGVCVGIGAWNYPFQIASWKSAPALACGNAMVFKPSPFTPVSALLLAEIYSEAGVPPGLFNVVQGGAATGQFLCQHPDVAKVSFTGSVPTGMKIMEMSAKGIKPVTLELGGKSPLIIFSDCDMNNAVKGALMANFLTQGQVCCNGTRVFVQKEILDKFTEEVVKQTQRIKIGDPLLEDTRMGPLINRPHLERVLGFVKVAKEQGAKVLCGGDIYVPEDPKLKDGYYMRPCVLTNCRDDMTCVKEEIFGPVMSILSFDTEAEVLERANDTTFGLAAGVFTRDIQRAHRVVAELQAGTCFINNYNVSPVELPFGGYKKSGFGRENGRVTIEYYSQLKTVCVEMGDVESAF
As usually defined, the stoichiometry N is a count of units in the complex or per binding partner. For the protein B1, the “stoichiometry N” value came to 4.
